# Results reported in publication PMC9482650, “Quantitative fragmentomics allow affinity mapping of interactomes” (Nature Communications, 2022).
# T1: APBA3_2, O96018
# T1 sequence (O96018 480-570, limits assumed, looked up): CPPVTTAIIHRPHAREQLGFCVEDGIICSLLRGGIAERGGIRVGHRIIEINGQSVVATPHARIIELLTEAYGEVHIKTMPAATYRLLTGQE
# T2: GIPC1, O14908
# T2 sequence (O14908 128-223, limits assumed, looked up): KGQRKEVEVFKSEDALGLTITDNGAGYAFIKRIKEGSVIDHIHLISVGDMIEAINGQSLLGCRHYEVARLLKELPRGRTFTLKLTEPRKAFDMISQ
# T3: GRIP1_1, Q9Y3R0
# T3 sequence (Q9Y3R0 48-146, limits assumed, looked up): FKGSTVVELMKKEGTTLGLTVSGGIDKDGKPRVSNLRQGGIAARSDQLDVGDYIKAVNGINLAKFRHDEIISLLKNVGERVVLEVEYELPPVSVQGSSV
# T4: MPDZ_13, O75970
# T4 sequence (O75970 1982-2070, limits assumed, looked up): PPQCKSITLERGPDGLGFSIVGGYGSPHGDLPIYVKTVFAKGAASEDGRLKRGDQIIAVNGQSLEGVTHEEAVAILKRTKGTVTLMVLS
# T5: MPDZ_2, O75970
# T5 sequence (O75970 252-347, limits assumed, looked up): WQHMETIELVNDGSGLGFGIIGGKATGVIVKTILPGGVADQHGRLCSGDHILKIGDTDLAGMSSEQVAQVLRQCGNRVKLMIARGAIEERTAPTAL
# T6: MPP1, Q00013
# T6 sequence (Q00013 66-162, limits assumed, looked up): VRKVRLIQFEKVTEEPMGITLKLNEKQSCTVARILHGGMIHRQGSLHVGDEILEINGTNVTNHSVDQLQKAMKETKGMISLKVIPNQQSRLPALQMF
# T7: NHERF1_1, O14745
# T7 sequence (O14745 9-104, limits assumed, looked up): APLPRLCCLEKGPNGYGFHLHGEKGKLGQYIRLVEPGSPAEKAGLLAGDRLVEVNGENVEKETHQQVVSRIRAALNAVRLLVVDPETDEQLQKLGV
# T8: PDZD2_3, O15018
# T8 sequence (O15018 581-682, limits assumed, looked up): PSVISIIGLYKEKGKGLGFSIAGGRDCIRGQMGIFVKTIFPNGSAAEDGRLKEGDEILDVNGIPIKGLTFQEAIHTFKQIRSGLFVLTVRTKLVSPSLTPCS
# T9: PDZD2_5, O15018
# T9 sequence (O15018 2617-2716, limits assumed, looked up): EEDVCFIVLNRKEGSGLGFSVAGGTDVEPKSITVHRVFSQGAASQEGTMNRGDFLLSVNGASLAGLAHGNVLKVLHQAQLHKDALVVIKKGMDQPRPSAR
# T10: PDZD7_2, Q9H5P4
# T10 sequence (Q9H5P4 205-303, limits assumed, looked up): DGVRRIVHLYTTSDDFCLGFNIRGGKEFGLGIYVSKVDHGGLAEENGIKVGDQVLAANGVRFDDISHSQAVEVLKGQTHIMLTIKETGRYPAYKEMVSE
# T11: SHROOM3, Q8TF72
# T11 sequence (Q8TF72 20-120, limits assumed, looked up): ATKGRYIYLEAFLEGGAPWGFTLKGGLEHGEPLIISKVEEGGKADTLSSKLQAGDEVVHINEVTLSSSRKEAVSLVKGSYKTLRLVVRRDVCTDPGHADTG
# T12: SHROOM4, Q9ULL8
# T12 sequence (Q9ULL8 5-102, limits assumed, looked up): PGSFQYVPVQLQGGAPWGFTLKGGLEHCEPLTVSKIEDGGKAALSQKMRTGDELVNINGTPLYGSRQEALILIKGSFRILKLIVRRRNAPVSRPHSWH
# T13: TJP3_2, O95049
# T13 sequence (O95049 190-282, limits assumed, looked up): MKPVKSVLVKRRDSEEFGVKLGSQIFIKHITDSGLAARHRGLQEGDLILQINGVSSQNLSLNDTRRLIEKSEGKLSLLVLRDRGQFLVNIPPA
# T14: PDZRN3_2, Q9UPQ7
# T14 sequence (Q9UPQ7 414-513, limits assumed, looked up): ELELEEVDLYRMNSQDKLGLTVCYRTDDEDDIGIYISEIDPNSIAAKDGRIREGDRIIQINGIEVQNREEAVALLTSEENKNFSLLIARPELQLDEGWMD
# T15: USH1C_3, Q9Y6N9
# T15 sequence (Q9Y6N9 447-547, limits assumed, looked up): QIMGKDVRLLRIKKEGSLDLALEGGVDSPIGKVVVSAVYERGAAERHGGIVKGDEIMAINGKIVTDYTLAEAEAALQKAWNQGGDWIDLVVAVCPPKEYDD
# Key:
# Experiment in all cases: holdup assay
# Parameters in all cases: key: below the threshold = too weak to quantify, mostly under pKd 3.1 to 4
# Conditions in all cases: plain residues with an end cap or a label only (N-terminal biotin on a linker: ttds)
# APBA3_2, O96018 = biological target: T1, APBA3_2, O96018
# DVL2, O14641 = biological target: DVL2, O14641
# DVL2, O14641, sequence (O14641 260-359): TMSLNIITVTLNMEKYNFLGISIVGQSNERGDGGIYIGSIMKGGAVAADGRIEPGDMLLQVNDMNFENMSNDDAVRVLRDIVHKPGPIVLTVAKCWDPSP
# GIPC1, O14908 = biological target: T2, GIPC1, O14908
# GRIP1_1, Q9Y3R0 = biological target: T3, GRIP1_1, Q9Y3R0
# MPDZ_13, O75970 = biological target: T4, MPDZ_13, O75970
# MPDZ_2, O75970 = biological target: T5, MPDZ_2, O75970
# MPP1, Q00013 = biological target: T6, MPP1, Q00013
# NHERF1_1, O14745 = biological target: T7, NHERF1_1, O14745
# PARD3_1, Q8TEW0 = biological target: PARD3_1, Q8TEW0
# PARD3_1, Q8TEW0, sequence (Q8TEW0 264-372): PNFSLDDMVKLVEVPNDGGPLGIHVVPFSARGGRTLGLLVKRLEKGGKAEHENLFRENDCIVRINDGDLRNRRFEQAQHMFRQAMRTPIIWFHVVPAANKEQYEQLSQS
# PDZD2_3, O15018 = biological target: T8, PDZD2_3, O15018
# PDZD2_5, O15018 = biological target: T9, PDZD2_5, O15018
# PDZD7_2, Q9H5P4 = biological target: T10, PDZD7_2, Q9H5P4
# PDZRN4_2, Q6ZMN7 = biological target: PDZRN4_2, Q6ZMN7
# PDZRN4_2, Q6ZMN7, sequence (Q6ZMN7 389-498): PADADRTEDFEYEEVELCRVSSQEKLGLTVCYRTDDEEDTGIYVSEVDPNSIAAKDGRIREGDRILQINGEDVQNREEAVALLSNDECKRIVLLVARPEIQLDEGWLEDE
# PREX1_1, Q8TCU6 = biological target: PREX1_1, Q8TCU6
# PREX1_1, Q8TCU6, sequence (Q8TCU6 608-718): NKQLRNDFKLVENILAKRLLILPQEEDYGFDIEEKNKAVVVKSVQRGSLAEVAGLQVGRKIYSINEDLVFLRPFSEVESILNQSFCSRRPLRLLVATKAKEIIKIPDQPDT
# SHROOM3, Q8TF72 = biological target: T11, SHROOM3, Q8TF72
# SHROOM4, Q9ULL8 = biological target: T12, SHROOM4, Q9ULL8
# TJP1_1, Q07157 = biological target: TJP1_1, Q07157
# TJP1_1, Q07157, sequence (Q07157 18-120): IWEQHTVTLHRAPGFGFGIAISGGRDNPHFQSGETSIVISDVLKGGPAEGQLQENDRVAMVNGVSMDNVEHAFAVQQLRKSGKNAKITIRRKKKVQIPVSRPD
# TJP3_2, O95049 = biological target: T13, TJP3_2, O95049
# LMO7, Q8WWI1 = biological target: LMO7, Q8WWI1
# LMO7, Q8WWI1, sequence (Q8WWI1 1037-1138): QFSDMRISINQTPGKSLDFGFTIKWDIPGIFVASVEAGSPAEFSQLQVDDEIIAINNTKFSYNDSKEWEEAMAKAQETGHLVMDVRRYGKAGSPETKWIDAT
# PDZD9, Q8IXQ8 = biological target: PDZD9, Q8IXQ8
# PDZD9, Q8IXQ8, sequence (Q8IXQ8 23-120): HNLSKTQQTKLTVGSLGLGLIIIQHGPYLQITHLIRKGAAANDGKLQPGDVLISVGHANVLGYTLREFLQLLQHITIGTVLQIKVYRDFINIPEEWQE
# PDZRN3_2, Q9UPQ7 = biological target: T14, PDZRN3_2, Q9UPQ7
# USH1C_3, Q9Y6N9 = biological target: T15, USH1C_3, Q9Y6N9
"pKd (APBA3_2, O96018)","pKd (DVL2, O14641)","pKd (GIPC1, O14908)","pKd (GRIP1_1, Q9Y3R0)","pKd (MPDZ_13, O75970)","pKd (MPDZ_2, O75970)","pKd (MPP1, Q00013)","pKd (NHERF1_1, O14745)","pKd (PARD3_1, Q8TEW0)","pKd (PDZD2_3, O15018)","pKd (PDZD2_5, O15018)","pKd (PDZD7_2, Q9H5P4)","pKd (PDZRN4_2, Q6ZMN7)","pKd (PREX1_1, Q8TCU6)","pKd (SHROOM3, Q8TF72)","pKd (SHROOM4, Q9ULL8)","pKd (TJP1_1, Q07157)","pKd (TJP3_2, O95049)","pKd (LMO7, Q8WWI1)","pKd (PDZD9, Q8IXQ8)",Binder,further results
3.95,below the threshold,below the threshold,below the threshold,below the threshold,below the threshold,below the threshold,4.09,below the threshold,below the threshold,3.8,below the threshold,below the threshold,4.22,below the threshold,3.86,below the threshold,3.95,,,"TGDTLEKFVEGL [CBP, Q92793]",
below the threshold,below the threshold,below the threshold,below the threshold,below the threshold,below the threshold,below the threshold,below the threshold,below the threshold,below the threshold,below the threshold,below the threshold,below the threshold,below the threshold,below the threshold,below the threshold,below the threshold,below the threshold,below the threshold,below the threshold,"NYWPGKETQL [SLCO1C1, Q9NYB5]","pKd (PDZRN3_2, Q9UPQ7): below the threshold; pKd (USH1C_3, Q9Y6N9): below the threshold"
below the threshold,below the threshold,below the threshold,below the threshold,below the threshold,below the threshold,below the threshold,below the threshold,below the threshold,below the threshold,below the threshold,below the threshold,below the threshold,,below the threshold,below the threshold,below the threshold,below the threshold,below the threshold,below the threshold,"RRVRKLPSTTL [RPS6KA1, Q15418]","pKd (PDZRN3_2, Q9UPQ7): below the threshold; pKd (USH1C_3, Q9Y6N9): below the threshold"
below the threshold,below the threshold,below the threshold,below the threshold,,below the threshold,below the threshold,4.46,below the threshold,below the threshold,below the threshold,below the threshold,below the threshold,below the threshold,,below the threshold,3.58,below the threshold,below the threshold,,"DEDQHTQITKV [PTEN, P60484]",
below the threshold,4.8,below the threshold,below the threshold,below the threshold,below the threshold,4.12,below the threshold,below the threshold,below the threshold,below the threshold,below the threshold,below the threshold,below the threshold,below the threshold,below the threshold,below the threshold,below the threshold,below the threshold,below the threshold,"QPGTPTRTAV [MAP2K2, P36507]","pKd (PDZRN3_2, Q9UPQ7): below the threshold; pKd (USH1C_3, Q9Y6N9): below the threshold"
below the threshold,below the threshold,below the threshold,below the threshold,below the threshold,below the threshold,below the threshold,below the threshold,below the threshold,below the threshold,below the threshold,below the threshold,below the threshold,below the threshold,below the threshold,below the threshold,below the threshold,below the threshold,below the threshold,below the threshold,"CLDTSRETDL [KCNA5, P22460]","pKd (PDZRN3_2, Q9UPQ7): below the threshold; pKd (USH1C_3, Q9Y6N9): below the threshold"
